According to patent US6861254:

Biological target: IgG agarose beads (Sigma)
Test: pull-down with IgG agarose beads; recovered HS^act conversion activity

An HS^act conversion activity extracted of 7000 units and a recovery of initial HS^act conversion activity of 10% were found for “Protein A tagged mouse r3-OST-1 (from UniProt O35310 27-311)” in this work.
